# Data: paper PMC12806343
# Assays:
# [1] = molecular target: membrane-bound PD-L1 on MDA-MB-231 cells, PNGase F treated (UniProt Q9NZQ7); assay: cell retention assay; conditions: 5' amine (NH2), BLI: 1x PBS pH 7.4, aptamers 3-12 uM, 300 s association, 600 s dissociation, temperature not stated, EMSA: TBE-PAGE, binding buffer composition not given
# [2] = molecular target: membrane-bound PD-L1 on MDA-MB-231 cells (Homo sapiens?) (UniProt Q9NZQ7); assay: cell retention assay; conditions: aptamer on slide, 5' amine (NH2), BLI: 1x PBS pH 7.4, aptamers 3-12 uM, 300 s association, 600 s dissociation, temperature not stated, EMSA: TBE-PAGE, binding buffer composition not given
# Chain of membrane-bound PD-L1 on MDA-MB-231 cells (Homo sapiens?) (Q9NZQ7 19-290): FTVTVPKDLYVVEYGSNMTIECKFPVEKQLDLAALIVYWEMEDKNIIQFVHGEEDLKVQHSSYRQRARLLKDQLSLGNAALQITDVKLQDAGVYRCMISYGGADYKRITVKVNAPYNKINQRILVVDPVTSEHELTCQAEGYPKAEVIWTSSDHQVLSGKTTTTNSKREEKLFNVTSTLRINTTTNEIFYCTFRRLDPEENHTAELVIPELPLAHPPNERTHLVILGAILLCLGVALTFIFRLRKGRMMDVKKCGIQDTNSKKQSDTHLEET
# Chain of membrane-bound PD-L1 on MDA-MB-231 cells, PNGase F treated (Q9NZQ7 19-290): as above
sequence,measurement,setting,value
ATAGTCCCTGGCGTGCTTGGTCGGCAGAGCAGGTACGGTGTCA [Apt45],binding signal (% cells retained),[1],46
same,binding signal (% cells retained),[2]; negligible adhesion,5.9
GTACCTGCTCTCCGCGCGAAGCACGCCAGGGACT [Tr-Apt13],binding signal (% cells retained),[2],86.8
TGACACCGTACCTGCTCTCCGCGCGAAGCACGCCAGGGACTAT [Apt13],binding signal (% cells retained),[2]; comparison with Apt45,72.9
same,binding signal (% cells retained),[2]; comparison with Tr-Apt13,62.8
